Experimental data published in patent publication US20250129329A1, “CULTURE MEDIUM FOR HEPATOMA ORGANOID CULTURE, HEPATOMA ORGANOID CULTURE METHOD, AND APPLICATION THEREOF” (PRECEDO PHARMACEUTICALS CO., LTD, priority 2021, published 2025).

Tested on: hepatoma organoids isolated from liver cancer tissue
Experiment: Effects of medium additives on proliferation of hepatoma organoids (Example 1)
Type: cell-based, human
Conditions: additive in basic medium at the final concentration; organoid diameters after 7 days compared with Basic Medium
Method: First, a basic medium containing initial medium was prepared. […] In this embodiment, the formulation of the basic medium is: DMEM/F12 medium (purchased from Corning)+100 μg/mL Primocin (purchased from InvivoGen, 0.2% (v/v), commercial product has a concentration of 50 mg/ml).
Different types of additives (see Table 1) were added to the basic medium to prepare culture mediums for hepatoma organoid with different components.
Tissue samples (intraoperative) of liver cancer solid tumor were obtained from patients by professional medical practitioner of professional medical institutions, and all patients have signed the informed consent. Intraoperative samples having the size of 0.25 cm3 were stored and transported using commercial tissue preservation solution (manufacturer: Miltenyi Biotec).
• 3.1. Tissue samples were transferred from the ultra-clean workbench to a culture dish, and the tissue with blood was removed. […] The completion of digestion was determined via observation every 30 minutes, based on the existing of visible particles or not. • 3.4. […]
The primary liver cancer cells obtained in the above steps were resuspended with pre-cooled DMEM/F12 and counted. […] After 7 days, the cultured organoids were photographed and the diameters of the organoids were measured and compiled, so as to compare the promoting effects of various factors on the proliferation of hepatoma organoids. […]

B1: R-spondin1: R-spondin family protein, medium additive, supplier R&D (protein, UniProt Q2MKA7 21-263, looked up)
R-spondin-1: SRGIKGKRQRRISAEGSQACAKGCELCSEVNGCLKCSPKLFILLERNDIRQVGVCLPSCPPGYFDARNPDMNKCIKCKIEHCEACFSHNFCTKCKEGLYLHKGRCYPACPEGSSAANGTMECSSPAQCEMSEWSPWGPCSKKQQLCGFRRGSEERTRRVLHAPVGDHAACSDTKETRRCTVRRVPCPEGQKRRKGGQGRRENANRNLARKESKEAGAGSRRRKGQQQQQQQGTVGPLTSAGPA
**Q.** B1 was tested. Which “Level of promoting proliferation” value did it give?
**A.** The value was “+”.
